According to patent US6602854B1, “Branched multimeric Apo A-I agonist compounds” (priority 1997, dated 2003):
Where no end group is shown, it is not given here. [ ]: non-standard residue; d: D form. Aib = CC(C)(N)C(=O)O

Assay: Circular dichroism: degree of helicity (free, SUVs, micelles, TFE)
Conditions: for He (%) free: percent helicity of free, unbound peptide; for He (%) SUVs: percent helicity of peptide-SUV complexes; for He (%) TFE: percent helicity of peptide-TFE solution; for He (%) mics: percent helicity of peptide-micelle complexes
Procedure: Far UV circular dichroism spectra were recorded between 190 and 260 nm (in 0.5 nm or 0.2 nm increments) with a AVIV62DS spectrometer (AVIV Associates, Lakewood, N.J., USA) equipped with a thermoelectric cell holder and sample changer. The instrument was calibrated with (+)-10-camphoric acid. Between one and three scans were collected for each sample, using 10 cm, 5 cm, 1 cm and 0.1 cm path length quartz Suprasil cells, respectively, for peptide concentrations of 10^−7 M to 10^−4 M. The bandwidth was fixed at 1.5 nm and the scan speed to 1 s per wavelength step. The reported data are the mean of at least 2 or 3 independent measurements.
After background substraction, spectra were converted to molar ellipticity (θ) per residue in deg. […] dmol^−1. The peptide concentration was determined by amino acid analysis and also by absorption spectrometry on a Perkin Elmer Lambda 17 UV/Visible spectrophotometer when the peptide contained a chromophore (tryptophane, dansyl, naphtylalanine).
CD spectra were obtained with free, unbound peptide (5 μM in 5 mM phosphate buffer, pH 7.4); with peptide-SUV complexes (20:1 EPC:Chol., Ri=30 and Ri=50); with peptide-micelle complexes (1-myristoyl-2-hydroxy-sn-glycero-3-phosphatidyl choline, Ri=100); and with free, unbound peptide in the presence of 2,2,2-trifluoroethanol (TFE) (5 μM peptide, 90% vol TFE).
The SUVs were obtained by dispersing the lipids (10 mM, 20:1 EPC:Chol., Avanti Polar Lipids, Ala.) in phosphate buffer (5 mM, pH 7.4) with bubbling N2 for 5 min., followed by sonication (1.5 hr.) in a bath sonicator. The homogeneity of the preparation was checked by FPLC.
The micelles were obtained by dispersing the lipid (6 mM 1-myristoyl-2-hydroxy-sn-glycero-3-phosphatidyl choline, Avanti Polar Lipids, AL) in phosphate buffer (5 mM, pH 7.4) with bubbling N2 for 5 min., followed by vortexing.
To obtain the peptide-SUV complexes, SUVs were added to the peptide (5 μM in 5 mM phosphate buffer, pH 7.4) at a phospholipid-peptide molar ratio (Ri) of 30 or 50.
To obtain the peptide-micelle complexes, micelles were added to the peptide (5 μM in 5 mM phosphate buffer, pH 7.4) at a Ri of 100.
All spectra were recorded at 37° C. The stability of peptide 4 (SEQ ID NO:4) as a function of temperature (both free in buffer and in micelles) was determined by recording spectra at a series of different temperatures.
The degree of helicity of peptide 4 (SEQ ID NO:4) as a function of concentration was also determined.
The degree of helicity of the peptides in the various conditions was determined from the mean residue ellipticity at 222 nm (Chen et al., 1974, Biochemistry 13:3350-3359) or by comparing the CD spectra obtained to reference spectra available on databases (16 helical reference spectra from Provencher & Glockner, 1981, Biochemistry 20:33-37; denatured protein reference spectra from Venyaminov et al., 1993, Anal. Biochem. 214:17-24) using the CONTIN curve-fitting algorithm version 2DP, CD-1 pack (Aug. 1982) (Provencher, 1982, Comput. Phys. Commun. 27:213-227, 229-242). Acceptable fit was determined using the statistical analysis methodology provided by the CONTIN algorithm.

## 105 (PAADAFREAANEAAEAAKQKAK) [compound 105]
  He (%) free: 29%
  He (%) SUVs: 32%
  He (%) TFE: 65%
  He (%) mics: 28%

## 197 (Ac-PLLDLFRELLEELKQKLK-NH2) [compound 197]
  He (%) free: 43%
  He (%) TFE: 69%
  He (%) mics: 70%

## 70 (PVLDEFRELLYE[Aib]LEALKQKLK) [compound 70]
  He (%) free: 27%
  He (%) SUVs: 33%
  He (%) TFE: 66%
  He (%) mics: 78%

## 99 (KLKQKLAELLENLLERFLDLVP) [compound 99]
  He (%) free: 72%
  He (%) SUVs: 80%
  He (%) TFE: 80%
  He (%) mics: 88%

## 76 (PVLDEFRELLFE[Aib]LEALKQKLK) [compound 76]
  He (%) free: 41%
  He (%) TFE: 66%
  He (%) mics: 88%

## 154 (PVLELFENLLERGLDALQKKLK) [compound 154]
  He (%) free: 13%
  He (%) SUVs: 25%
  He (%) TFE: 80%
  He (%) mics: 76%

## 113 (PVLDEFREKLNEPLEALKQKLK) [compound 113]
  He (%) free: 6%
  He (%) mics: 22%

## 54 (PVLDLFRELLNEWLEALKQKLK) [compound 54]
  He (%) free: 76%
  He (%) SUVs: 84%
  He (%) TFE: 78%
  He (%) mics: 71%

## 108 (PVLDLFRWLLNE[Aib]LEALKQKLK) [compound 108]
  He (%) free: 28%
  He (%) TFE: 54%
  He (%) mics: 55%

## PVLDLFKELLNELLEALKQKLK [peptide 7]
  He (%) free: 77%
  He (%) SUVs: 85%
  He (%) TFE: 73%
  He (%) mics: 89%

## 209 (PVLDLFRELLNELLQKLK) [compound 209]
  He (%) free: 54%
  He (%) SUVs: 67%
  He (%) TFE: 62%
  He (%) mics: 71%

## 104 (PLLNELLEALKQKLK) [compound 104]
  He (%) free: 21%
  He (%) SUVs: 29%
  He (%) TFE: 55%
  He (%) mics: 49%

## 163 (PVLELFENLLERLWDALQKKLK) [compound 163]
  He (%) free: 27%
  He (%) TFE: 55%
  He (%) mics: 53%

## 39 (PVLDLFRELLEELLKALKKKLK) [compound 39]
  He (%) free: 66%
  He (%) SUVs: 68%
  He (%) TFE: 72%
  He (%) mics: 69%

## 192 (Ac-PVLDLFKELLEELKQKLK-NH2) [compound 192]
  He (%) free: 36%
  He (%) TFE: 56%

## 199 (Ac-PVLDLFRELWEELKQKLK-NH2) [compound 199]
  He (%) free: 35%
  He (%) SUVs: 80%
  He (%) TFE: 79%
  He (%) mics: 77%

## 41 (PVLDLWRELLNE[Aib]LEALKQKLK) [compound 41]
  He (%) free: 53%
  He (%) SUVs: 85%
  He (%) TFE: 69%
  He (%) mics: 73%

## 223 (PVLDAFRELLEALAQLKK) [compound 223]
  He (%) free: 21%
  He (%) SUVs: 23%
  He (%) TFE: 51%
  He (%) mics: 56%
